Test results from patent US20130108650A1 (ACCELERON PHARMA, published 2013).
Changes are numbered by the printed parent chain.

T1: hActRIIB-mFc (human; mouse, UniProt Q13705 19-137)
T1 construct: not shown: murine IgG2a Fc (captured by antibody against murine IgG2a Fc)
T1 sequence: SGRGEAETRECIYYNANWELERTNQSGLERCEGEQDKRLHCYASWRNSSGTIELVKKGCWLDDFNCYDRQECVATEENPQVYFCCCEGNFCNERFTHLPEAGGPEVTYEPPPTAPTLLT

T2: activin A (UniProt P08476 311-426)
T2 sequence (looked up): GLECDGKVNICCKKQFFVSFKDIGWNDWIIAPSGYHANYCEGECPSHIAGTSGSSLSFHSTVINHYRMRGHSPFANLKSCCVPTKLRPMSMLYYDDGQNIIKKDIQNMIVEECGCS

B1: Fab-17A11 (Fab, V domains shown)
VH: EVQLLESGGGLVQPGGSLRLSCAASGFTFSTYAMMWVRQAPGKGLEWVSRIYPSGGTTTYADSVKGRFTISRDNSKNTLYLQMNSLRAEDTAVYYCARGSAASSYWGQGTLVTVSS
VL: DIQMTQSPSFLSASVGDRVTITCRASQGISNYLAWYQQKPGKAPKLLIYAASTLQSGVPSRFSGSGSGTEFTLTISSLQPEDIGTYYCQQLISYPFTFGPGTKVDIK
notes: Soluble Fab from Dyax's Fab310 library; the Fab constant domains are not; also called sFab 17A11
B2: Ab-17G05 (antibody, V domains shown)
VH: EVQLLESGGGLVQPGGSLRLSCAASGFTFSNYWMGWVRQAPGKGLEWVSYIRSSGGLTHYADSVKGRFTISRDNSKNTLYLQMNSLRAEDTATYYCAKGLYSFDYWGQGTLVTVSS
VL: DIQMTQSPSSLSASVGDRVTITCRASQGVNNFLAWYQQKPGKAPRLLIYAASTLQSGVPSRFSGSGSGTDFTLSISNLQPEDFATYYCQQSYSTPRGFGQGTKVEIK
notes: also called antibody 17G05; Ab-R17G05
B3: Fab-17G05 (Fab, V domains shown)
VH: B2 VH
VL: B2 VL
notes: the Fab constant domains are not; also called sFab 17G05; Fab-R17G05
B4: Fab-17G01 (Fab, V domains shown)
VH: B2 VH with W33Q, G35D, R52G, S53P, L57R, H59K, K98R
VL: DIQMTQSPSSLSASVGDRVTITCRAGQSISNFLNWYQHTPGTGPKVLIYAASSLQSGVPSRFSGSGSGTEFTLTITNLQPEDFATYYCQQSYSTPFTFGPGTKVDIK
notes: Soluble Fab from Dyax's Fab310 library; the Fab constant domains are not; also called sFab 17G01
B5: hActRIIB-hFc (human ActRIIB ECD linked to human IgG1 Fc) (Fc fusion, not shown: a dimerising Fc or GST)
chain: T1 sequence
B6: Fab-17C09 (Fab, V domains shown)
VH: EVQLLESGGGLVQPGGSLRLSCAASGFTFSQYNMTWVRQAPGKGLEWVSSIYSSGGVTPYADSVKGRFTISRDNSKNTLYLQMNSLRAEDTAVYYCARGRLLFDYWGQGTLVTVSS
VL: DIQMTQSPSSLSASVGDRVTITCRASQSISNYLNWYQQRPGKPPKLLIYAASSLQSGVPSRFSGSGSGTDFSLSISILQPEDFATYYCQQGYTAPRSFGQGTKVEIK
notes: Soluble Fab from Dyax's Fab310 library; the Fab constant domains are not; also called sFab 17C09

Assays:
[1] = target: B5; assay: SPR (BIACORE) competition: biotinylated ActRIIB-Fc on streptavidin chip, sFab 40 ug/ml then GDF11 500 ng/ml; competitor GDF11
Description: Affinity-purified sFabs were also screened in two SPR-based competition assays at Acceleron. The first assay evaluated the effect of sFab pretreatment on binding of GDF11 to immobilized ActRIIB-Fc. […] This signal was compared with a second signal (residual GDF11 binding) resulting from GDF11 binding to immobilized ActRIIB-Fc that had first been exposed to sFab (40 μg/ml).

[2] = target: B5; assay: SPR (BIACORE), human ActRIIB-hFc, Fab in solution, 25 C; 25 C
[3] = target: B5; assay: SPR (BIACORE), human ActRIIB-hFc, Fab in solution, 25 C
[4] = target: B5; assay: SPR (BIACORE), human ActRIIB-hFc, Fab in solution, 37 C
[5] = target: T1, hActRIIB-mFc; assay: SPR (BIACORE), hActRIIB-mFc captured on anti-murine IgG2a Fc chip, antibody in solution, 25 C
Description: (§1) FIG. 2 depicts kinetic characterization of Ab-17G05 binding to hActRIIB-mFc as determined by BIACORE™-based analysis at 25° C. (A) or 37° C. (B). hActRIIB-mFc was captured on a chip with covalently immobilized antibody against murine IgG2a Fc and then exposed to Ab-17G05 at concentrations ranging from 0.0195 μg/ml to 5 μg/ml.
(§2) BIACORE™-based analysis was used to characterize binding of Ab-17G05 to ActRIIB. For this analysis, Ab-17G05 was purified from COS-cell-conditioned media by one-step protein G chromatography.

[6] = target: T1, hActRIIB-mFc; assay: SPR (BIACORE), hActRIIB-mFc captured on anti-murine IgG2a Fc chip, antibody in solution, 37 C
Description: FIG. […] (A) or 37° C. (B). hActRIIB-mFc was captured on a chip with covalently immobilized antibody against murine IgG2a Fc and then exposed to Ab-17G05 at concentrations ranging from 0.0195 μg/ml to 5 μg/ml.
as §2

[7] = target: T1, hActRIIB-mFc; assay: SPR (BIACORE), Ab-17G05 on hActRIIB-mFc compared with Fab-17G05 on hActRIIB-hFc
Description: as §1, §2

[8] = target: B5; assay: cell-based or functional assay
[9] = target: B5; assay: SPR (BIACORE), hActRIIB-hFc captured on anti-human IgG1 Fc chip, Fab in solution, 37 C; 37 C
Description: (§3) FIG. […] (A) or 37° C. (B). hActRIIB-hFc was captured on a chip with covalently immobilized antibody against human IgG1 Fc and then exposed to Fab-17G05 at concentrations ranging from 0.0195 μg/ml to 5 μg/ml. RU, response units.

[10] = target: B5; assay: SPR (BIACORE), hActRIIB-hFc captured on anti-human IgG1 Fc chip, Fab in solution, 25 C (values of Example 4 reprinted for comparison); 25 C; Fab values reprinted for comparison with Ab-17G05
Description: (§4) FIG. 1 depicts kinetic characterization of Fab-17G05 binding to hActRIIB-hFc as determined by BIACORE™-based analysis at 25° C. (A) or 37° C. (B). hActRIIB-hFc was captured on a chip with covalently immobilized antibody against human IgG1 Fc and then exposed to Fab-17G05 at concentrations ranging from 0.0195 μg/ml to 5 μg/ml. RU, response units.

[11] = target: B5; assay: SPR (BIACORE), hActRIIB-hFc captured on anti-human IgG1 Fc chip, Fab in solution, 25 C
Description: as §4

[12] = target: B5; assay: SPR (BIACORE), hActRIIB-hFc captured on anti-human IgG1 Fc chip, Fab in solution, 37 C
Description: as §3

[13] = target: B5; assay: SPR (BIACORE), hActRIIB-hFc captured on anti-human IgG1 Fc chip, Fab in solution, 25 C (values of Example 4 reprinted for comparison)
Description: as §4

[14] = target: B5; assay: SPR (BIACORE), hActRIIB-hFc captured on anti-human IgG1 Fc chip, Fab in solution, 37 C (values of Example 4 reprinted for comparison)
Description: as §3

[15] = target: T2, activin A; assay: cell-based or functional assay

Binder: B1
residual GDF11 binding [1]: < 50 % of Emax
Kd [2]: 1.6 nM
koff [3]: 0.00019 s⁻¹
kon [3]: 1.2e+06 M⁻¹ s⁻¹
Kd [4]: 9.9 nM
koff [4]: 0.014 s⁻¹
kon [4]: 1.4e+06 M⁻¹ s⁻¹

Binder: B2
Kd [5]: 0.028 nM
koff [5]: 2.7e-05 s⁻¹
kon [5]: 970000 M⁻¹ s⁻¹
Kd [6]: 0.092 nM
koff [6]: 0.00014 s⁻¹
kon [6]: 1.5e+06 M⁻¹ s⁻¹
fold improvement in off-rate and KD against Fab-17G05 [7]: ≥ 20 fold
IC50 of neutralization, A204 cell-based reporter gene assay (activin A 5 ng/ml plus ActRIIB-Fc 50 ng/ml) [8]: ~0.04 nM

Binder: B3
Kd [9]: 1.9 nM
kon [10]: 1.6e+06 M⁻¹ s⁻¹
residual GDF11 binding [1]: < 50 % of Emax
Kd [11]: 0.55 nM
koff [11]: 0.00087 s⁻¹
kon [11]: 1.6e+06 M⁻¹ s⁻¹
koff [12]: 0.0031 s⁻¹
kon [12]: 2.6e+06 M⁻¹ s⁻¹
Kd [13]: 0.55 nM
koff [13]: 0.00087 s⁻¹
Kd [14]: 1.9 nM
koff [14]: 0.0031 s⁻¹
kon [14]: 2.6e+06 M⁻¹ s⁻¹
IC50 of neutralization, A204 cell-based reporter gene assay (activin A 5 ng/ml plus ActRIIB-Fc 50 ng/ml) [8]: ~2.6 nM

Binder: B4
residual GDF11 binding [1]: < 50 % of Emax
Kd [3]: 3.8 nM
koff [3]: 0.0018 s⁻¹
kon [3]: 460000 M⁻¹ s⁻¹
Kd [4]: 21 nM
koff [4]: 0.012 s⁻¹
kon [4]: 580000 M⁻¹ s⁻¹

Binder: B5
IC50 of inhibition of activin A signaling, A204 reporter gene assay (activin A 5 ng/ml) [15]: 0.05 µg/mL

Binder: B6
residual GDF11 binding [1]: < 50 % of Emax
